Columns and labels:
[1] = biological target: Ss-DAF-2B, isoform B of the insulin receptor homolog Ss-DAF-2 of Strongyloides stercoralis (Strongyloides stercoralis)
[2] = biological target: Ss-DAF-2B, isoform B of the insulin receptor homolog Ss-DAF-2 of Strongyloides stercoralis (Strongyloides stercoralis); remark: listed apart in the source

bovine insulin (ligand)
feeding rate of S. stercoralis iL3 with bovine insulin; endogenous Ss-DAF-2, isoforms not told apart [1]: 38.2% | Ss-daf-2 transcript level in iL3 treated with bovine insulin, fold change against control (RT-PCR); no significant effect [2]: 1 fold

porcine insulin (ligand)
feeding rate of S. stercoralis iL3 with porcine insulin; endogenous Ss-DAF-2, isoforms not told apart [1]: 0.7% | Ss-daf-2 transcript level in iL3 treated with porcine insulin, fold change against control (RT-PCR); no significant effect [2]: 0.9 fold

human insulin (Hs-INS) (from UniProt P01308 1-110) (ligand)
feeding rate of S. stercoralis iL3 with human insulin compared with porcine and bovine insulin at equivalent concentrations; endogenous Ss-DAF-2, isoforms not told apart [1]: 72.2% | Ss-daf-2 transcript level in iL3 treated with human insulin, fold change against control (RT-PCR) [2]: 2.6 fold

Reference: paper PMC12711028
